Reference: paper PMC4174979 (DNA repair, 2014)

Biological target: the molecule itself
Test: SEC

Protein	stoichiometry N
Sgs1_(157–257) (domain or fragment, S. cerevisiae, UniProt P35187 157-257, looked up) NKSVIDNSSIGKQLENDIKLEVIRLQGSLIMALKEQSKLLLQKCSIIESTSLSEDAKRLQLSRDIRPQLSNMSIRIDSLEKEIIKAKKDGMSKDQSKGRSQ	6
Sgs1_(103–322) (domain or fragment, S. cerevisiae, UniProt P35187 103-322, looked up) ADVPMVDIPASTSVVSNPRTPNGSKTHNFNTFRPHMASSLVENDSSRNLGSRNNNKSVIDNSSIGKQLENDIKLEVIRLQGSLIMALKEQSKLLLQKCSIIESTSLSEDAKRLQLSRDIRPQLSNMSIRIDSLEKEIIKAKKDGMSKDQSKGRSQVSSQDDNIISSILPSPLEYNTSSRNSNLTSTTATTVTKALAITGAKQNITNNTGKNSNNDSNNDD	6
BLM_(95–294) (domain or fragment, human, UniProt P54132 95-294, looked up) AGQETQRGGSKSLLPDFLQTPKEVVCTTQNTPTVKKSRDTALKKLEFSSSPDSLSTINDWDDMDDFDTSETSKSFVTPPQSHFVRVSTAQKSKKGKRNFFKAQLYTTNTVKTDLPPPSSESEQIDLTEEQKDDSEWLSSDVICIDDGPIAEVHINEDAQESDSLKTHLEDERDNSEKKKNLEEAELHSTEKVPCIEFDDD	6
